Measured values as given in patent publication US20240173424A1, “ANTI-NECTIN-4-ANTIBODY EXATECAN CONJUGATES” (EMERGENCE THERAPEUTICS AG, priority 2021, published 2024).

Columns and labels:
[1] = molecular target: T1, Nectin-4 expressed by tumors and Nectin-4 expressed by human keratinocytes (Homo sapiens, UniProt Q96NY8); experiment: Differential binding to tumor cells and human keratinocytes
T1 construct: Cells or cell lines (10,000-50,000) expressing Nectin-4 (naturally or transfected); endogenous in cells; host or cells: SUM190/SUM190PT (also SUM149 in IHC), NHEK differentiated with 0.1 mM CaCl2, human skin sections
T1 sequence (Q96NY8 32-510): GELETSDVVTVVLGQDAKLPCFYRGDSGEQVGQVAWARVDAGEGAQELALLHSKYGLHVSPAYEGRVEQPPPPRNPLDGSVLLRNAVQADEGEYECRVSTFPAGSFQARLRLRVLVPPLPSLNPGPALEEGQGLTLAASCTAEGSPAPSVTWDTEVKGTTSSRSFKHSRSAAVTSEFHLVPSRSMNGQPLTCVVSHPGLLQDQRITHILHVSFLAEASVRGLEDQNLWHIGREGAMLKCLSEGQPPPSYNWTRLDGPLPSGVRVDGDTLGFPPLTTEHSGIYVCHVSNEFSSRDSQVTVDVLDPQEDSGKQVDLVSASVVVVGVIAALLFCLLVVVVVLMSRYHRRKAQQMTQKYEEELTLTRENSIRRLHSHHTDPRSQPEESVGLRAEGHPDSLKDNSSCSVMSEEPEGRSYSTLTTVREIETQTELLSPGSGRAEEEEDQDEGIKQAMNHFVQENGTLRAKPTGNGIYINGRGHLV
Source text: FIG. 6: Differential binding to Nectin-4 expressed by tumor cell line and normal differentiated human keratinocytes. […] Cells were then stained with phycoerythrin conjugate goat anti human Fc antibody. Normalized mean fluorescence intensities are shown. Non-linear curve fitting (4 parameters) was done with GraphPad Prism 9 software. Horizontal bar is placed at 50% of maximum staining intensity obtained with HA22 antibody on SUM190 cells.
FIG. 7: Differential binding to Nectin-4 expressed by tumor cell line and normal differentiated human keratinocytes. Detection by flow cytometry. • Flow cytometry analysis of TNBC cell line (SUM190, A) and normal differentiated (0.1 mM CaCl2) human keratinocytes (NHEK, B) using 5 μg/mL of HA22 (Enfortumab), Ch-5A12.2, Ch-15A7.5, and Ch-8F06. Cells were then stained with phycoerythrin conjugate goat anti human Fc antibody. Normalized mean fluorescence intensities are shown.
FIG. 8: Differential binding to Nectin-4 expressed by tumor cell line and human keratinocytes. Detection by immuno-histochemistry. Cryo-preserved OCT-embedded blocks of high expressing levels of Nectin-4 tumor cell line (SUM190), low expressing levels of Nectin-4 tumor cell line (SUM149), human and cynomolgus skin were processed for staining with 15A7.5 mAb (A) and 9A2.7 mAb (B). Quick score reported for each mAb are shown (A, B). C, ratio of quick score SUM190 over human skin. […]
Remaining blocks were stored at −80° C. until further use. […] Several dilution of each mAb were tested to optimize noise to signal ratio and 0.5 μg/ml of mouse 15A7.5 mAb and 10 µg/mL of mouse 9A2.7 mAb were determined as optimal. […] Both the stained cells proportion and the staining intensity were evaluated for each field. […] Scoring procedure was as follows: (i) The proportion of cells stained positively was estimated and a score from 0 to 4 was be assigned for each field (0=0-5%; 1=5-25%; 2=25-50%; 3=50-75%; and 4=75-100%); and (ii) The staining intensity was scored as 0, 1, 2, or 3 corresponding to the presence of negative, weak, intermediate, and strong brown staining, respectively. […]

[2] = system: SUM190PT cells and normal human differentiated keratinocytes; experiment: Internalization assay with pHAB dye conjugates, tumor cell line and keratinocytes; assay type: cell-based; conditions: in vitro, in reference to HA22 mAb (Enfortumab)
Procedure: FIG. 9: Differential internalization in tumor cell line and human keratinocytes. Detection by fluorescence Enfortumab (HA22), Ch-15A7.5 and Isotypic control mAbs were coupled to pHAB thiol reactive dye to reach dye antibody ratio comprised between 4.58 and 5.55. A dose range of each of these antibody dye conjugates (1.6 ng/ml-5 μg/mL) was incubated in duplicates with SUM190PT Nectin-4-expressing cell line (A) normal human differentiated (0.1 mM CaCl2) keratinocytes (B). Intracellular fluorescence was recorded after 24 hours with florescence microplate reader (ClarioStar). Reported are the fluorescence intensities in function of dye antibody conjugate concentration.
Ten thousand SUM190PT or human differentiated keratinocytes (0.1 mM CaCl2) were seeded in 96-wells plates and subsequently incubated for 24 hours at 37° C., with a dose range (1.6 ng/ml-1 μg/mL) of anti Nectin-4 mAbs and isotypic control conjugated with pHAB thiol reactive dye. Upon internalization and endo-lysosomal processing, the acidic environment causes the dye to fluoresce. Fluorescence intensity was monitored on a plate reader with an excitation at 532 nm and an emission at 560 nm.
The thiol reactive dye pHAB (Promega) was conjugated to cysteine of selected anti-Nectin-4 ThiomAb (D265C, L234A, L235A) antibodies using maleimide chemistry according to manufacturer's instructions. […]

[3] = system: SUM190PT cells and normal human differentiated keratinocytes; assay type: cell-based
Procedure: FIG. 10: Differential in vitro cytotoxic activity to tumor cells and normal differentiated human keratinocytes. […] Viability (MTT assay) after a 5-days incubation period is reported. EC50 values were determined by GraphPad Prism 9 software using non-linear curve fitting (4 parameters). […] Data shown is representative of 2 different Nectin-4 expressing tumor cell lines (SUM190PT and MDA-MB468) and 3 independent donors for human keratinocytes.
To analyze the in vitro cytotoxic activity of ADC, cell viability was assessed using the AlamarBlue staining protocol as recommended by the manufacturer (Biosource, CA, USA). The test incorporates a fluorescent oxidation-reduction indicator. Fluorescence intensity is proportional to cellular metabolic reduction. Experiments were done by incubating 3000 cells/well (SUM190PT or differentiated NHEK) in triplicate with serial dilutions of ADC at Day 0 in 96-wells plates. AlamarBlue was measured at Day 5 by incubating 1/10 volume of alamarBlue solution for 2 h at 37° C. and read at 595 nm (FLUOstar Optima, BMG Labtech).

[4] = In vivo half-life; conditions: due to a lower absorption rate in the skin

affinity to Nectin-4 expressed by tumors in comparison to Nectin-4 expressed by human keratinocytes ([1]; in vitro differentiated Nectin-4 expressing keratinocytes): higher affinity | binding affinity towards keratinocytes in comparison to tumor cells ([1]; in vitro, in reference to HA22 mAb (Enfortumab)): lower binding affinity
B1: mAb 15A7.5: parental monoclonal anti-Nectin-4 antibody, CDRs SEQ ID NO: 1-12, VH/VL SEQ ID NO: 13/14 (antibody, V domains shown)
VH: EVKLVESGGGLVQPGGSRKLSCAASGFTFSNYGMAWVRQAPGKGPEWVAFISNLAYGINYADTVTGRFTISRENAKNTLYLEMRSLRSEDTAMYYCARGARATGWFAYWGQGTLVTVSA
VL: DIVMTQSQKFMSTSIGDRVSVTCKASQNVDTHVAWYQEKPGQSPKALIYSASYRYSGVPDRFTGSGSGTDFTLTISNVQSEDLADYFCQQYNSYPLTFGGGTKLEIK
modifications: VH_15A7.5; VK_15A7.5
internalization towards keratinocytes in comparison to tumor cells [2]: lower | cytotoxic activity towards keratinocytes in comparison to tumor cells [3]: lower | half-life [4]: higher half-life
